From the supplement of paper PMC9112550, “Optimization of the antimicrobial peptide Bac7 by deep mutational scanning” (BMC Biology, 2022)

Test system: Escherichia coli TOP10
Test: shrunken log2 fold change of peptide-encoding DNA abundance (4.5 h post-induction vs induction); higher = less antimicrobial activity (less host growth inhibition)
Details: time post-induction: 4.5 h; library: site-saturation at positions 5, 18, 19, 20
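Note: peptides expressed intracellularly from a pBAD plasmid library in pooled LB shake-flask culture, induced with 0.3% L-arabinose, DNA abundance read by NGS, three biological replicates, DESeq2 with apeglm shrinkage.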

| Sequence | shrunken log2 fold change |
| --- | --- |
| RRIRDRPPRLPRPRPRPLQLPRP | -0.0775 |
| RRIRRRPPRLPRPRPRPDHEPRP | 0.152 |
| RRIRERPPRLPRPRPRPSQPPRP | 0.0471 |
| RRIRWRPPRLPRPRPRPITFPRP | -0.232 |
| RRIRLRPPRLPRPRPRPVAHPRP | -0.454 |
| RRIRHRPPRLPRPRPRPKQKPRP | -0.00654 |
| RRIRSRPPRLPRPRPRPVRVPRP | 0.743 |
| RRIRIRPPRLPRPRPRPYYGPRP | -2.94 |
| RRIRKRPPRLPRPRPRPRYWPRP | 0.173 |
| RRIRQRPPRLPRPRPRPCIVPRP | -0.747 |
| RRIRFRPPRLPRPRPRPMCPPRP | -0.176 |
| RRIRVRPPRLPRPRPRPACGPRP | 0.122 |
| RRIRPRPPRLPRPRPRPTEAPRP | -0.258 |
| RRIRLRPPRLPRPRPRPEQPPRP | 0.437 |
| RRIRSRPPRLPRPRPRPKKNPRP | 0.267 |
| RRIRKRPPRLPRPRPRPHWQPRP | 0.3 |
| RRIRMRPPRLPRPRPRPEIIPRP | 2.84 |
| RRIRSRPPRLPRPRPRPPNLPRP | -0.148 |
| RRIRSRPPRLPRPRPRPCRRPRP | -0.241 |
| RRIRLRPPRLPRPRPRPGIRPRP | 0.0174 |
| RRIRNRPPRLPRPRPRPKFGPRP | 0.0252 |
| RRIRCRPPRLPRPRPRPSGIPRP | -0.154 |

| Sequence | shrunken log2 fold change |
| --- | --- |
| RRIRKRPPRLPRPRPRPRPSPRP | 0.585 |
| RRIRKRPPRLPRPRPRPHKQPRP | 0.164 |
| RRIRCRPPRLPRPRPRPNERPRP | 0.0333 |
| RRIRTRPPRLPRPRPRPLLEPRP | 0.024 |
| RRIRHRPPRLPRPRPRPQPGPRP | -0.0184 |
| RRIRIRPPRLPRPRPRPMKNPRP | -0.359 |
| RRIRMRPPRLPRPRPRPFHSPRP | -0.0121 |
| RRIRHRPPRLPRPRPRPVWEPRP | 0.107 |
| RRIRARPPRLPRPRPRPGNWPRP | 0.346 |
| RRIRFRPPRLPRPRPRPQGFPRP | -0.313 |
| RRIRGRPPRLPRPRPRPPRKPRP | 1.26 |
| RRIRLRPPRLPRPRPRPMGSPRP | -0.000911 |
| RRIRPRPPRLPRPRPRPFMMPRP | -0.845 |
| RRIRNRPPRLPRPRPRPTIKPRP | -0.496 |
| RRIRGRPPRLPRPRPRPDTSPRP | 0.383 |
| RRIRARPPRLPRPRPRPMGHPRP | 0.062 |
| RRIRMRPPRLPRPRPRPHCWPRP | -0.207 |
| RRIRRRPPRLPRPRPRPILEPRP | 0.0696 |
| RRIRKRPPRLPRPRPRPTWSPRP | 0.278 |
| RRIRHRPPRLPRPRPRPLHGPRP | 0.00793 |
| RRIRPRPPRLPRPRPRPWRTPRP | 0.141 |
| RRIRDRPPRLPRPRPRPNNDPRP | 0.132 |

| Sequence | shrunken log2 fold change |
| --- | --- |
| RRIRIRPPRLPRPRPRPYWFPRP | -0.112 |
| RRIRYRPPRLPRPRPRPHDGPRP | 0.015 |
| RRIRTRPPRLPRPRPRPMPQPRP | -0.134 |
| RRIRDRPPRLPRPRPRPNCEPRP | 0.133 |
| RRIRARPPRLPRPRPRPMPWPRP | 0.483 |
| RRIRTRPPRLPRPRPRPYNWPRP | -0.143 |
| RRIRGRPPRLPRPRPRPDNNPRP | 0.388 |
| RRIRYRPPRLPRPRPRPIEFPRP | -0.0341 |
| RRIRWRPPRLPRPRPRPQDDPRP | 0.0379 |
| RRIRSRPPRLPRPRPRPFPDPRP | -0.319 |
| RRIRLRPPRLPRPRPRPRGMPRP | 0.239 |
| RRIRPRPPRLPRPRPRPCRFPRP | 0.086 |
| RRIRQRPPRLPRPRPRPRSNPRP | -0.108 |
| RRIRKRPPRLPRPRPRPASMPRP | 0.116 |
| RRIRIRPPRLPRPRPRPEVSPRP | 0.068 |
| RRIRQRPPRLPRPRPRPTHAPRP | 0.437 |
| RRIRIRPPRLPRPRPRPVKMPRP | -0.173 |
| RRIRPRPPRLPRPRPRPMETPRP | -0.00904 |
| RRIRHRPPRLPRPRPRPLNKPRP | -0.677 |
| RRIRPRPPRLPRPRPRPGWHPRP | 0.248 |
| RRIRQRPPRLPRPRPRPGMFPRP | 0.00926 |
| RRIRLRPPRLPRPRPRPHLCPRP | -0.355 |

| Sequence | shrunken log2 fold change |
| --- | --- |
| RRIRYRPPRLPRPRPRPMIMPRP | -0.0957 |
| RRIRNRPPRLPRPRPRPKCRPRP | 0.0642 |
| RRIRGRPPRLPRPRPRPYRVPRP | -0.0183 |
| RRIRPRPPRLPRPRPRPNRCPRP | 0.0358 |
| RRIRDRPPRLPRPRPRPDEKPRP | 0.0291 |
| RRIRKRPPRLPRPRPRPLIYPRP | -0.213 |
| RRIRKRPPRLPRPRPRPMDKPRP | 0.166 |
| RRIRFRPPRLPRPRPRPHVPPRP | -0.315 |
| RRIRHRPPRLPRPRPRPMEAPRP | -0.0935 |
| RRIRPRPPRLPRPRPRPKDAPRP | 0.164 |
| RRIRPRPPRLPRPRPRPELRPRP | -0.0276 |
| RRIRARPPRLPRPRPRPRWNPRP | 0.00795 |
| RRIRSRPPRLPRPRPRPDIGPRP | -0.113 |
| RRIRRRPPRLPRPRPRPQCFPRP | 0.212 |
| RRIRARPPRLPRPRPRPTGFPRP | 0.105 |
| RRIRNRPPRLPRPRPRPFMSPRP | -0.17 |
| RRIRCRPPRLPRPRPRPAFFPRP | 0.0268 |
| RRIRIRPPRLPRPRPRPNPMPRP | -0.169 |
| RRIRDRPPRLPRPRPRPDLEPRP | 0.0526 |
| RRIRTRPPRLPRPRPRPDQKPRP | -0.056 |
| RRIRMRPPRLPRPRPRPFPEPRP | 0.562 |
| RRIRMRPPRLPRPRPRPYRKPRP | -0.432 |

| Sequence | shrunken log2 fold change |
| --- | --- |
| RRIRRRPPRLPRPRPRPRSRPRP | 0.345 |
| RRIRKRPPRLPRPRPRPWSKPRP | 0.00888 |
| RRIRERPPRLPRPRPRPTQWPRP | 0.00138 |
| RRIRRRPPRLPRPRPRPIIVPRP | 0.0931 |
| RRIRLRPPRLPRPRPRPHMFPRP | -0.356 |
| RRIRERPPRLPRPRPRPTGEPRP | -0.0152 |
| RRIRRRPPRLPRPRPRPPRGPRP | 0.911 |
| RRIRWRPPRLPRPRPRPFELPRP | -0.285 |
| RRIRSRPPRLPRPRPRPPCSPRP | 0.198 |
| RRIRKRPPRLPRPRPRPQTLPRP | 0.0931 |
| RRIRWRPPRLPRPRPRPDWVPRP | 0.253 |
| RRIRERPPRLPRPRPRPPYWPRP | 0.0536 |
| RRIRNRPPRLPRPRPRPINDPRP | 0.0259 |
| RRIRQRPPRLPRPRPRPCSAPRP | -0.257 |
| RRIRARPPRLPRPRPRPPPCPRP | 0.979 |
| RRIRVRPPRLPRPRPRPCQSPRP | 0.0215 |
| RRIRVRPPRLPRPRPRPLYCPRP | -0.596 |
| RRIRCRPPRLPRPRPRPWHQPRP | -0.0304 |
| RRIRRRPPRLPRPRPRPMFDPRP | 0.195 |
| RRIRFRPPRLPRPRPRPIMWPRP | 0.0691 |
| RRIRQRPPRLPRPRPRPFVNPRP | -0.545 |
